# Test results: the nanobody polyreactivity screen of Harvey et al. (2022)
# Assay: yeast display, Sf9 membrane polyspecificity reagent, FACS + sequencing; frameworks hold sequencing errors
# Summary of the method: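 Polyreactivity labels are assigned by the sorting gate from which each nanobody was recovered. The gates were low and high (top ~1%), set on anti-HA fluorescence for expression and streptavidin fluorescence for reagent binding. Before sorting, galactose-induced (36–48 hours) yeast display cells were stained for 1 hour at 4 °C with 10% biotinylated, detergent-solubilized Sf9 membrane reagent.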
row,Sequence,polyreactivity (PSR sort gate)
1,QVQLVESGGGLVQAGGSLRLSCAASGRTFARYAIGWSRQAPGKERELVAAITRRGGSTYYADSVKGRFTLSRDNAKNTVYLQMNSLKPEDTAVYYCAAHYPNFGIGAYEYWGQGTQVTVSS,high polyreactivity
2,QVQLVESWGGLVQAGGSLRLSCAASGSTIIGYDMGWYRQAPGKVRELVAAISYSDGTYYADSVKGRFTISRDNAKNTFYLPMNSLKPEDTAVYYCAADSLYYRYDYWGQGTQVTVSW,low polyreactivity
3,QVQLVESGGGLVQAGGSLRLSCAASGFIFSSYAMGWYRQAPGKERELVAAISKSGDRTSYADSVKGRFTISRDNAKNTVYLQMNSLKPEDTAVYYCAKDRLYRTKKYRDMYYWGQGTQVTVSS,high polyreactivity
4,QVQLVESGGGLVQAGGSLRLSCASSGITFWSYAMVWYRQAPGKERELVAAISRGGDSTYYADSVKGRFTISRDNAKNTVYLQMNSLKPEDTAVYDCAALRPREEYYWGHGTQVTVSS,high polyreactivity
5,QVQLVESGGGLVQAGGSLRLSCAASGFTFYRYDMGWYRQAPGKERELVAAITNNGGKTYYADSVKGRITISRDNAKYSDYLQMNSLKPVDTAVYYSAAEFYWGDLSYWGQGTQVTVSS,high polyreactivity
6,QVQLVESGGGLVHAGGSLRLSCAASGRTFKFYAMGWYRQAPGKERELVAAISGSGGTTRYADSVKGRFTISRDNAKNTVYLQMNSLKPEDTAVYYCAARPPGLALEYGYWGQGTQVTVSS,high polyreactivity
7,QVQLVESGGGLVQAGGSLRLSCAASGFTSQYYAMGWYRQAPGKERELVAAITLRDGSTYYADSVKGRFTISRDNAKNTVYLQMNSMKPEDTAVYYCNTDATSDPYGFGYWGQGTQVTVSS,low polyreactivity
8,QVQLVESGGGLVQAGGSLRLSCAASGIIFYTNAMGWYRQAPGKEREFVAAINTSGGITYYADSVKGRFTISRDNAKNTVYLQMNSLKPEDTAVYYCAADQTYERHWVYYWGQGTQVTVSS,low polyreactivity
9,QVQLVESGGGLVQAGGSLRLSCAASGGIFTFNDMGWYRQAPGKERELVAAISRRGGSTYYADSVKGRFTISRDNAKNTVFLQMNSLKPEDTAVYYCAASSRRQRSEPYYYWGQGTQVTVSS,high polyreactivity
10,QVQLVESGGGLVQAGGSLRLSCAASGRIFGLYAMGWYRQAPGKERELVAAISRGGGSTYYADSVKGRFTISRDNAKNTVYLQMNSLKPEDTAVYYCATGLGYFSRLDYWGQGTQVTVSS,low polyreactivity
11,QVQLVESGGGLLQAGGSLRLSCADRRTLSFYAKGCSIQAPGKERELVAAISRSGGSTYYADSEKGRFTISRDNAKNTGKLQMNRLKPEDTAVYYFAARSSGGYDYWGQGTQVTVSS,high polyreactivity
12,QVQLVESGGGLVQAGGSLRLSCAASGSTFYTNPMGWYRQAPGKERELVAAISGSGGSTYYADSVKGRFTISRDNAKNTVYLQMNSLKPEYTAVYYCAARSRYYDTRFDYWGQGTQVTVSS,low polyreactivity
13,QVQLVESCGGLVQAGGSLRLTCAASGSTFNWYTMGWYRQAPGKDRELVAAMSRGTGSTYYADSVKGRFTMSRDNANNRVYVQMNSLKPEDTAVYSCAKQGYRYSSFLYDYWGQGTQVTVSS,low polyreactivity
14,QVQLVESGGGLVQAGGSLRLICAASGFTFTQYVMGWYSQAPGKERELVAAINWSGGNTYYAESVKGRFTISRDNAKNTVYLQMNSLKPEDTAVYYCAAYRHRNGYDYWGQGTQVTVSS,high polyreactivity
15,QVQLVESGGGLVQAGVSLSLSCAASGITFIIYVMGWYRQAPGKERELVAAISSTGSTYYADSVKGRFTISRDNAKNTVYLQMNSLKPEDTAVYYCAARGRRSSNGFYYWGQGTQVTVSS,high polyreactivity
16,QVQLVESGGGLVQAGGSLRLSCAASGRTFGYYVMGWYRQAPGKERELVAAISQSGGSTYYADSVKGRFTISRDNAKNTVYLQMNSLKPEDTAVYYCAKRGWRTFQGGYWGQGTQVTVSS,high polyreactivity
17,QVQLVESGGGLVQAGGSLRLSCAASGIIFYRYAMGWYRQAPGKERELVAAISGSGGRTYYADSVKGRFTISRDNAKNTVYLQMNSLKPEDTAVYYCARVYDIYHYFYAYGGDYWGQGTQVTVSS,high polyreactivity
18,QVQLVESGGGLVLPGGRLRLSCAASGGTFSTYAIASYRQGPGKERELVAAISSRGTSTYYADSVKGRFTISRDNAKNSVYLQMNSLKPEDTAVYYCAAVGVKQFLGGNPFDYWGQGTQVTVSS,high polyreactivity
19,QDQLVESGGGLVQAGGSLRLSCAASVSTFVNYAMGWYRQAPGKEMELVAAMSWSGGSTYYADSVKGRFTISRDNAKNTVYLQMNSLKPEDTAVYYCAVYAYWRFRTYYYWGQGTQVTVSA,high polyreactivity
20,QVQLVESGGGLVQAGGSLRLSCAASGSTFYYYTMGWYRQAPGKERELVATITYRSGNTYYADSVKGRFTISRDNAKNTVYLQMNSLKPEDTAVYYCAALRRVLPYKRYDYWGQGTQVTVSS,high polyreactivity
21,QVQLVESGGGLVQAGGSLRLSCAASGSIFGLNAMGWYRQAPGKERELVAASSVSGTRTYYADSVKGRFTISRDNAKNTGYVQMNSLKPEDTAVYYCATRRYIFYSPYRYGYWGQGTHVTVSS,high polyreactivity
22,QVQLVESGGGLDQAGGSLRLSCAASGRIFTANVMGWYRQAPGKERELVAAIDYSGGSTYYADSVKGRFTISRDNAKNTVYLQMNSLKPEDTAVYSCNRDDYADYYHLEYDYWGQGTQVTVSS,low polyreactivity

row,Sequence,polyreactivity (PSR sort gate)
1,QVQLVESGGGLVQAGGSLRLSFAASGLIFPSYTMGWYRQAPGNYGELVAGINSGGSTNYAESVMGRFTISRDIAKNTDYLQMNSQKAEHTAVYYCAKDNNYYWYVSPRDYWGQGTQVTVSS,low polyreactivity
2,QVQLVESGGGLVQAGGSLRLSCAASGRIFHWYTMGWYRQAPGKERELVATITDGGSTYYADSVKGRFTISRDNAKNTVYLQMNSLKPEDTAVYYCAARKIGTRRLRYPYYIFGYWGQGTQVTVSS,high polyreactivity
3,LVQLVESGGGLVQAGGSLRLSCAASGGTIVYYTMGWYRHAPGKERELVATIDNSDGSTYYADSVKGRFTISRDNAKNTVDLQMNSLKPEDTPVYYCSKSLPHSTSRDYWGQGTQLTVSS,low polyreactivity
4,QVQLVESGGGLVQAGGSLRLSCAASGRTFTTIAMGWYRQAPGKERELVSAINSGGSTNYADSVKGRFTISRDNAKNTVYLQMNSLKPEDTAVYYCAKRQRDYSSVFDVDYWGQGTQVTVSS,low polyreactivity
5,QVQLVESGGGLVQAGGSLRLSCAASGSIFYSNAMGWYRQAPGKERELVAAISVSGVTTYYADSVKGRFTISRDNAKNTVYLQMNSLKPEDTAVYYCAADTGYRYDDYYWWGGEYDYWGQGTQVTVSS,low polyreactivity
6,QVQLVESGGGLVQAGGSLRLSCAASGSTFGRNTMGWYRPAPGKERELVAAITAGDTTTYADSVKGRFTISRDNAKNTDYLQMKSLKREDTAVYYCAVDPVRGRDYSWMDYWGQGSQVTVSS,low polyreactivity
7,QVQLVESGGGLVQAGGSLRLSCAASGYTFWWYAMGWSRQAPGKERELVAAISIGGSTKYADSVKGRFTISRDNAKNTVYLQMNSLKPEDTAVYYCAAEVSYHYVPYGYWGQGTQVTVSS,low polyreactivity
8,QVQLVESGGGLVQAGGSLRLSCAASGSTIRAYGMGWYRQAPGKERELVAAISYSGDSTYYADSVKGRFTISRDNAKNTVYLQMNSLKPEDTAVYYCDADYSYRHYEYDYWGQGTQVTVSS,low polyreactivity
9,QVQLVESGGGLVQAGGSLRLSCAASGSTFSSYAMGWYRQAPGKEREFVAAISRSGVRTYYADSVKGRFTISRDNAKNSVYLQMNSLNPEDTVVYYCAAVSSLSYSFPYDYWGQGTQVTVSS,high polyreactivity
10,QVQLVDSGGGLVQAGGSLRLSCAASGFIFDVYAMGGYRQAPGKERQLVAAISVSSTNYADSVKGRFTISRDNAKNTVYLQMNSLKPEDTAVSYCAADTYTYFLASYLYGQYDYWGQGTQVTVSW,low polyreactivity
11,QVQLVESGGGLVQAGGSLRLSCAASGNTFPTNVMGWYRQAPGKERELVAAITRSGGTTYYADSVKGRFTISRDNAKNTVYLQMNSLKPEDTAVYYCAAGPTQGWGRGYWGQGTQVTVSS,high polyreactivity
12,QVQLVESGGGLVQAGGSLRLSCAASGNTIIRYPMGWYRPAPGKERELVAAISYSGGRTYYADSVKGRFTISRDSAKNTVYLQMNRLKPEDSAVLYCNAASRYGGDYWGQGSQVTVSS,high polyreactivity
13,QVQLVESGGGLVQAGGSLRLSCASSGYTFYAYAMGWYRQAPGKERELVAAISGSGGNTRYADSVKGRFTISRDNAKNTVYLQMNILKPEDTAVYYCAKRIIRSPFGAYGYWGQGTQVTVSS,high polyreactivity
14,QVQLVESGGGLVQAGGSLRLSCAASGLTFPVYAMGWYRQAPGKERELVAAISKSGGNTYYADSVKGRFTISRDNAKNTVYLQMNSLKPEDTAVYYCAAGYLSGNYARYGYWGQGTQVTVSS,high polyreactivity
15,QVQLLESGGRLVQAGGSLRLSCAASGFTFGVNAMGWYRQAPGKERELVAAITSRGGSTYYADSVKGRFTISRDNAKNTVYLQMNSLKPEDTAVYYCAALGRGYFYGYRYDHWGQGTQVSVSS,high polyreactivity
16,QVQLVESGGGLVQAGGSLRLSCAASGSISSYAMGWSRQAPGKERELVASITWHGGGTYYADSVKGRFTISRDNAKNTVYLQMNSLKPEDTAVYYCAKDNYLDPPYFYRFAGYDYCGQGTQVTVSS,low polyreactivity
17,QVQLEESGGGVVQAGGSLRLSCAASGRTFYHKAMGWYRQAPGKETQVVATINSGGSTYADSVKGRFTISRDNAKNTVYLQMNSVKPEDTAVYYCAATFWSRSRFYYGYDYWGQGTQVTVSS,high polyreactivity
18,QVQLVESGGGLVQAGGSLRLSFAASGRTFVLYTMGWYRQAPGKERELVAAISVGGALTYYADSVRGRFTISRDNAKNTVYLQMNSLKPEDSAVYYCAARRHSRVKYRDYWGQGTQVTVSS,high polyreactivity
19,QVQLVESGGGLVQAGGSLRLICAASGRTFRFYAKGWYRQAPGKERELVAAITSGGSTTYAYSVKGRFTISRDNAKNTVYLQMNSLKPEDTAVYYCNADRARAYDYWGQGTQVTVSS,high polyreactivity
20,QVQLVESGGGLVQAGGSLRLSWAASGSTFAWYAMGWYRQAPGKDRELVATISSGGSTYYADSVKGRFTISRDNAKNTVYLQMNSLKTEDTAVYYCAADYLTPWVYWFSYGLDYWGQGTQVTVSS,low polyreactivity
21,QVQLVESGGGLVQAGGRLRLSCAASGSTFEEYAMGWYRQAPGKERELVAGITWGGGSTYYADSVKGRFTISRDNAKNTVYLQMNSQKPEDTAVYYCAAEPGWYADTPASDSKYDYWGQGTQGTVSS,low polyreactivity
